From patent US9176064B2, “Bisubstrate fluorescent probes for protein kinase CK2” (University of Tartu, priority 2012, dated 2015)
Where a SMILES comes first, the peptide text is derived from it. [ ]: non-standard residue; d: D form. The star is where a group is joined. X1 = O=C(CCCCCCCn1cnc2c(Br)c(Br)c(Br)c(Br)c21)*

Assays:
Assay in all cases: Kinase panel residual activity
Assay type in all cases: biochemical
Conditions in all cases: compound at 1 micromolar
EPH-B3 = target: T1, EPH-B3 (Homo sapiens, UniProt P54753)
T1 sequence (P54753 34-998): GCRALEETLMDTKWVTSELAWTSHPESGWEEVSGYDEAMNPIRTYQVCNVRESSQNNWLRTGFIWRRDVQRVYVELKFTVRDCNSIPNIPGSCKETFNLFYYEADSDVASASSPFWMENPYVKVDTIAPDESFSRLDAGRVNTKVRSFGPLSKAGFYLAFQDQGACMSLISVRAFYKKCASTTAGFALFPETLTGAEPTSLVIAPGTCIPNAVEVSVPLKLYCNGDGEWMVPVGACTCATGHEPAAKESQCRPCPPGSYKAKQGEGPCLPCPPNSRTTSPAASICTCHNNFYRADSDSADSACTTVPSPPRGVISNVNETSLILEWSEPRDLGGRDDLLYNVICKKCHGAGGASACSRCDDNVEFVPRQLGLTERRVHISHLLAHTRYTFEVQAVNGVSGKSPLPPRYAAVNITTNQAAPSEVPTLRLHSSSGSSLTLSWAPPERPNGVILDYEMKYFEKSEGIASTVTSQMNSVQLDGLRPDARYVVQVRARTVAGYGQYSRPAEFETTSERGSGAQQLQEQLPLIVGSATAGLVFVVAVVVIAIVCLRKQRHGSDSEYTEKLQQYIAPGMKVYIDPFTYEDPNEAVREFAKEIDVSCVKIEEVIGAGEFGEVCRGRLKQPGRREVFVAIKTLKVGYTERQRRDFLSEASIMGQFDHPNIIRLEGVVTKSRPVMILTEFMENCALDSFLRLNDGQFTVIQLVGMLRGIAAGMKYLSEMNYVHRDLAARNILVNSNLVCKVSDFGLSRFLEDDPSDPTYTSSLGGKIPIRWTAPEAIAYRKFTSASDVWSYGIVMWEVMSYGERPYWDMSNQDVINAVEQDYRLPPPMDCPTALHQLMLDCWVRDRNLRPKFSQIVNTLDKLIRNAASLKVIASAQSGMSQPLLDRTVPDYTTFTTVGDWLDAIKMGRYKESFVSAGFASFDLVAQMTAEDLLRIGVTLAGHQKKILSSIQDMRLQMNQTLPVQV

PAK5 = PAK5 (Homo sapiens, UniProt Q9P286)
Chain of PAK5 (Q9P286 whole entry): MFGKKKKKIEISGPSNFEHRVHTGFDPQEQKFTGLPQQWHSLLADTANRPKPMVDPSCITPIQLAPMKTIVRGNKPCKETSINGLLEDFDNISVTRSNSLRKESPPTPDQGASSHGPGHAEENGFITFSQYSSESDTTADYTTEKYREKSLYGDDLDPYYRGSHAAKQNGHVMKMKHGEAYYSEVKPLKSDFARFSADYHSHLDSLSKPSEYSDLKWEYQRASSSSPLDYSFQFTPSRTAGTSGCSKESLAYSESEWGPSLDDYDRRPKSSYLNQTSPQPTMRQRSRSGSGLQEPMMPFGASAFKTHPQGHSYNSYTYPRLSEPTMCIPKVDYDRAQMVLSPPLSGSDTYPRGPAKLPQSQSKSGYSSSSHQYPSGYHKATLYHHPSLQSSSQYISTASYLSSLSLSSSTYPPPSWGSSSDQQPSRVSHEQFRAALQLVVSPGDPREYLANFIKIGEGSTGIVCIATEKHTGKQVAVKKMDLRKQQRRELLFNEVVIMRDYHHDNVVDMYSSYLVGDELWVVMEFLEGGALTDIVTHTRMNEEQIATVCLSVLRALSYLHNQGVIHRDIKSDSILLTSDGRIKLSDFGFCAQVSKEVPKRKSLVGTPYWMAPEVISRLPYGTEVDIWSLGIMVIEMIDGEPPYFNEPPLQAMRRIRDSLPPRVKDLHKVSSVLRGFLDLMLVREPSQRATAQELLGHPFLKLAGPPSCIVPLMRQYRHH

IR = IR (Homo sapiens, UniProt P06213)
Chain of IR (P06213 28-1382): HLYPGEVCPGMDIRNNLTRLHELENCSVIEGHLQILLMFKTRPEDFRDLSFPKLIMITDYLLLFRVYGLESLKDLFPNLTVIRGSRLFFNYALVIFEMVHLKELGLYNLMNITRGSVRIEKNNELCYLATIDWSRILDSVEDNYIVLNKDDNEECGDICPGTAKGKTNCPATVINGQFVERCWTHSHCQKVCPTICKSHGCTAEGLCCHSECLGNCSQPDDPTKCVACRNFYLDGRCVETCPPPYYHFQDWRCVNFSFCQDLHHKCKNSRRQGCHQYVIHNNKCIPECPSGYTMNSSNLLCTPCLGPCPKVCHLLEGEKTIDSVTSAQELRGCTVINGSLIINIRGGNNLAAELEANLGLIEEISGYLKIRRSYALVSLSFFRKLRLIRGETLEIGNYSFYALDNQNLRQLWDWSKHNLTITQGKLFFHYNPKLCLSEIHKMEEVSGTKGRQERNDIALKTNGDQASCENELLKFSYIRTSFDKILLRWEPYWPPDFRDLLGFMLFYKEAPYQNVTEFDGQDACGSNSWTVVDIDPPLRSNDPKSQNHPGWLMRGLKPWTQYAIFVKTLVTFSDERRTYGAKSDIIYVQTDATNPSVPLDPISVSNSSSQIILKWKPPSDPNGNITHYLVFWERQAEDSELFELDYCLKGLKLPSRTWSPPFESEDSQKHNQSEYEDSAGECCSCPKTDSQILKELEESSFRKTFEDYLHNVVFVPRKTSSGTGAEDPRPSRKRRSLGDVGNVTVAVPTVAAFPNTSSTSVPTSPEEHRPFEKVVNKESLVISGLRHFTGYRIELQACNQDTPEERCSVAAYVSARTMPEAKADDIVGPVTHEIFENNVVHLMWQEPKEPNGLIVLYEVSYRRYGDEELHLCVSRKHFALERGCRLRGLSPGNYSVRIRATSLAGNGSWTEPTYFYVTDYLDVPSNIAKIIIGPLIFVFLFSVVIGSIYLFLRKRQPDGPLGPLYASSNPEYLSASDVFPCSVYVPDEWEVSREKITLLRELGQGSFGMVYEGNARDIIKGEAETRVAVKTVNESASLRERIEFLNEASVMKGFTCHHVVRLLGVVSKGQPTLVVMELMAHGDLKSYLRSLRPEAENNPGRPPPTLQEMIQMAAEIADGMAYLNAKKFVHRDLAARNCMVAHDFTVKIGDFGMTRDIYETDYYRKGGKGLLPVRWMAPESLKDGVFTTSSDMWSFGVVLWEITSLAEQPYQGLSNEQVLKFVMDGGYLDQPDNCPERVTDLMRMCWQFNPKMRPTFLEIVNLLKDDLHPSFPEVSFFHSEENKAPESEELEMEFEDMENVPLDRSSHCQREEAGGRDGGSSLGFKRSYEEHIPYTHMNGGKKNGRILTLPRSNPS

BRSK1 = target: T2, BRSK1 (Homo sapiens, UniProt Q8TDC3)
T2 sequence (Q8TDC3 1-778): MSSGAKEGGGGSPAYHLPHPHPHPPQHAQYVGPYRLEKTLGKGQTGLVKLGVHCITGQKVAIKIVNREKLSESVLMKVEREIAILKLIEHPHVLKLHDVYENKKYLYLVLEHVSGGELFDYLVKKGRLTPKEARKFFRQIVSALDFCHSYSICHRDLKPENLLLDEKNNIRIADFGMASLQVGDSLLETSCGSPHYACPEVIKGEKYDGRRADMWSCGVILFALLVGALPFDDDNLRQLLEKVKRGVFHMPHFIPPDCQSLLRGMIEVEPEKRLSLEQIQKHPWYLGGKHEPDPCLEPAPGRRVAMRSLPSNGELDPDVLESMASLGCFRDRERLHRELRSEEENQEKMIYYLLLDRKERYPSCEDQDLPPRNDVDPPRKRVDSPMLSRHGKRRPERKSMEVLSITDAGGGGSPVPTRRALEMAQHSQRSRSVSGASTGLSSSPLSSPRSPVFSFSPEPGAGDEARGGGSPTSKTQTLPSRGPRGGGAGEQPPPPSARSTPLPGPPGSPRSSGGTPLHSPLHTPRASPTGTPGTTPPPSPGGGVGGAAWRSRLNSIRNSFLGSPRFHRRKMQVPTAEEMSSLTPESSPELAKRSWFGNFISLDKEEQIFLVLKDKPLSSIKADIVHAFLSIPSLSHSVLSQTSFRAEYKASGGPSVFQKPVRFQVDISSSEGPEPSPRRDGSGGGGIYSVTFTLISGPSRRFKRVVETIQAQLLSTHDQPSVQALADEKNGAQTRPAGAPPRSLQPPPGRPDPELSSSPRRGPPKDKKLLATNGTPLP

Aurora B = Aurora B (Homo sapiens, UniProt Q96GD4)
Chain of Aurora B (Q96GD4 whole entry): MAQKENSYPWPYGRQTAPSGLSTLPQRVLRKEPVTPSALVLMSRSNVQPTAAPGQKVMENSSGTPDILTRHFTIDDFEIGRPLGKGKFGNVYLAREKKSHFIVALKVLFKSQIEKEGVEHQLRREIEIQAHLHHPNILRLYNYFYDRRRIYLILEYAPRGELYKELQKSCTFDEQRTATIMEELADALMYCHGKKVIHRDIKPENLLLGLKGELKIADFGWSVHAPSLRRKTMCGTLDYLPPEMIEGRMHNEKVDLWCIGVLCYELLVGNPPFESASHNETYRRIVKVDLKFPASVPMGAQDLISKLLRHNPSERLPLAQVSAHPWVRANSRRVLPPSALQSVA

RIPK2 = RIPK2 (Homo sapiens, UniProt O43353)
Chain of RIPK2 (O43353 whole entry, species assumed): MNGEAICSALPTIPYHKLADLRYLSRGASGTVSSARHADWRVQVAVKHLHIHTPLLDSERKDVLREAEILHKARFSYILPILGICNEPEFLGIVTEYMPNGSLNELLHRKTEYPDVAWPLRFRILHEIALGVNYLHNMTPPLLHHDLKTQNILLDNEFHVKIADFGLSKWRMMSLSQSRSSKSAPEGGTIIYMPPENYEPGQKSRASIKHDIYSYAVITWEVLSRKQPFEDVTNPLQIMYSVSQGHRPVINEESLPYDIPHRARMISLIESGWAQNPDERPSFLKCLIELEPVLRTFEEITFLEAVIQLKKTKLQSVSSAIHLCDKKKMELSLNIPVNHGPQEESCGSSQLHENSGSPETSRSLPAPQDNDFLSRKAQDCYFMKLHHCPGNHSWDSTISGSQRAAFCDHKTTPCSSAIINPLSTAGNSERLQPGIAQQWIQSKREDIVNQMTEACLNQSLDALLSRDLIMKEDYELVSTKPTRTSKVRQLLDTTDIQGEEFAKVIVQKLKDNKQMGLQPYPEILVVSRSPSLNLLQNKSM

CDK2-Cyclin A = CDK2-Cyclin A (Homo sapiens, UniProt P24941)
MAPKAP-K3 = MAPKAP-K3 (Homo sapiens, UniProt Q16644)
Chain of MAPKAP-K3 (Q16644 whole entry, species assumed): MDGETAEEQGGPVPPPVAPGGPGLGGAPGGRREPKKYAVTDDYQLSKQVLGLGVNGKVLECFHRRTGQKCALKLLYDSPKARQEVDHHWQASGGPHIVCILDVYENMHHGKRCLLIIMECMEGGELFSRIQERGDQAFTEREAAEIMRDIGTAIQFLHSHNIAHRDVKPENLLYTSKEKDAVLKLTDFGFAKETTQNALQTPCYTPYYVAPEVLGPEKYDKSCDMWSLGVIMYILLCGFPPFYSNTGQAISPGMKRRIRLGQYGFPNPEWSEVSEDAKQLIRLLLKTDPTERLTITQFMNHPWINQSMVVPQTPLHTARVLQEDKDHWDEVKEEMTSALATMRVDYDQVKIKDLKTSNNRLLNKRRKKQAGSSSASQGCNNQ

`NCCCC[C@H](NC(=O)[C@H](CC(=O)O)NC(=O)[C@H](CC(=O)O)NC(=O)[C@H](CC(=O)O)NC(=O)[C@H](CC(=O)O)NC(=O)[C@H](CC(=O)O)NC(=O)[C@@H](CC(=O)O)NC(=O)CCCCCCCn1cnc2c(Br)c(Br)c(Br)c(Br)c21)C(=O)O` [TBBI-OcA-(D-Asp)-(L-Asp)5-(L-Lys)-OH] (X1-[dD]DDDDDK-OH) was tested, and the remaining activity at 1 µM (EPH-B3) was 98%, the remaining activity at 1 µM (PAK5) was 81% and the remaining activity at 1 µM (IR) was 70%. It also gave a remaining activity at 1 µM (BRSK1) of 95%, a remaining activity at 1 µM (Aurora B) of 100% and a remaining activity at 1 µM (RIPK2) of 120%. It also gave a remaining activity at 1 µM (CDK2-Cyclin A) of 64% and a remaining activity at 1 µM (MAPKAP-K3) of 69%.
